Data: PMC9754112 (mAbs, 2022)

B1: JS007, humanized IgG1 anti-CTLA-4 monoclonal antibody (antibody, V domains shown)
VH: QVQLQESGPGLVKPSQTLSLTCTVSAYSITSGYYWNWIRQHPGKGLEWIGYIGYDGSNNYNPSLKSRVTISRDTSKNQFSLKLSSVTAADTAVYYCARDYYSGYFDSWGQGTTLTVSS
VL: DIQMTQSPSSLSASVGDRVTITCRASQNVGTYVAWYQQKPGKVPKPLIYSTSYRYSGVPSRFSGSGSGTDFTLTISSLQPEDVATYFCHQYDTYPLTFGAGTKLELK

Legend:
[1] = target: recombinant human CTLA-4-His-tag protein (Homo sapiens (Human).) (UniProt P16410); test: SPR
[2] = target: recombinant human CTLA-4-His-tag protein (Homo sapiens (Human)., UniProt P16410); test: SPR
Sequence of recombinant human CTLA-4-His-tag protein (P16410 36-161): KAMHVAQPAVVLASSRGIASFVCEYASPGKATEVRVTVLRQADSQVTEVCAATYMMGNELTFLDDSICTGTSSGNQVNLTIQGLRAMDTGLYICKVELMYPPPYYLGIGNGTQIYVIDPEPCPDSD

Row | Molecule | Kd [1] [nM] | Kd [2] [nM]
1 | ipilimumab (antibody) | 16.1 | –
2 | B1 | – | 0.21
